Reference: FireProtDB (doi:10.1021/bi9928694)

Settings: Homo sapiens, reversible: yes, whole UniProt chain shown
[1] = pH 2.7, Thermal, DSC, glycine-HCl 0.05 M
[2] = pH 4, 10 °C, GdnHCl, CD, glycine-HCl 40 mM

B1: Lysozyme C wild type, P61626 (protein)
chain: MKALIVLGLVLLSVTVQGKVFERCELARTLKRLGMDGYRGISLANWMCLAKWESGYNTRATNYNAGDRSTDYGIFQINSRYWCNDGKTPGAVNACHLSCSALLQDNIADAVACAKRVVRDPQGIRAWVAWRNRCQNRDVRQYVQGCGV
In the case of B1, the Tm [1] is reported as 64.9 °C, the “heat capacity change of unfolding” value [1] is reported as 1.58 kcal/mol/K and the “unfolding enthalpy (calorimetric)” value [1] is reported as 114 kcal/mol. For the same protein, the “denaturant midpoint (higher = more stable)” value [2] was 3.96 M and the unfolding free energy [2] was 14.3 kcal/mol.
